The values below come from paper PMC5603883, “Challenges to Design and Develop of DNA Aptamers for Protein Targets. II. Development of the Aptameric Affinity Ligands Specific to Human Plasma Coagulation Factor VIII Using SEC-SELEX”.

This series has as its target coagulation factor VIII (plasma-derived, Haemoctin 500) (Homo sapiens, UniProt P00451 20-2351). Kind of series: nitrocellulose filter binding, fluorescence of filtrate; 5 mM CaCl2, 5 mM MgCl2; Tris 40 mM, NaCl 117 mM, CaCl2 5 mM, MgCl2 5 mM, pH 7.4; selection at 4 °C, Kd assay temperature not stated; FVIII 20 ng (700 pM), DNA 0.5-700 nM. The note with it: protein: commercial; label: fluorescein via labelled reverse primer (S3) stated for the labelling PCR; the labelled strand is not explicitly specified; predicted three-branch stem-loop.

coagulation factor VIII (plasma-derived, Haemoctin 500), sequence (P00451 20-2351): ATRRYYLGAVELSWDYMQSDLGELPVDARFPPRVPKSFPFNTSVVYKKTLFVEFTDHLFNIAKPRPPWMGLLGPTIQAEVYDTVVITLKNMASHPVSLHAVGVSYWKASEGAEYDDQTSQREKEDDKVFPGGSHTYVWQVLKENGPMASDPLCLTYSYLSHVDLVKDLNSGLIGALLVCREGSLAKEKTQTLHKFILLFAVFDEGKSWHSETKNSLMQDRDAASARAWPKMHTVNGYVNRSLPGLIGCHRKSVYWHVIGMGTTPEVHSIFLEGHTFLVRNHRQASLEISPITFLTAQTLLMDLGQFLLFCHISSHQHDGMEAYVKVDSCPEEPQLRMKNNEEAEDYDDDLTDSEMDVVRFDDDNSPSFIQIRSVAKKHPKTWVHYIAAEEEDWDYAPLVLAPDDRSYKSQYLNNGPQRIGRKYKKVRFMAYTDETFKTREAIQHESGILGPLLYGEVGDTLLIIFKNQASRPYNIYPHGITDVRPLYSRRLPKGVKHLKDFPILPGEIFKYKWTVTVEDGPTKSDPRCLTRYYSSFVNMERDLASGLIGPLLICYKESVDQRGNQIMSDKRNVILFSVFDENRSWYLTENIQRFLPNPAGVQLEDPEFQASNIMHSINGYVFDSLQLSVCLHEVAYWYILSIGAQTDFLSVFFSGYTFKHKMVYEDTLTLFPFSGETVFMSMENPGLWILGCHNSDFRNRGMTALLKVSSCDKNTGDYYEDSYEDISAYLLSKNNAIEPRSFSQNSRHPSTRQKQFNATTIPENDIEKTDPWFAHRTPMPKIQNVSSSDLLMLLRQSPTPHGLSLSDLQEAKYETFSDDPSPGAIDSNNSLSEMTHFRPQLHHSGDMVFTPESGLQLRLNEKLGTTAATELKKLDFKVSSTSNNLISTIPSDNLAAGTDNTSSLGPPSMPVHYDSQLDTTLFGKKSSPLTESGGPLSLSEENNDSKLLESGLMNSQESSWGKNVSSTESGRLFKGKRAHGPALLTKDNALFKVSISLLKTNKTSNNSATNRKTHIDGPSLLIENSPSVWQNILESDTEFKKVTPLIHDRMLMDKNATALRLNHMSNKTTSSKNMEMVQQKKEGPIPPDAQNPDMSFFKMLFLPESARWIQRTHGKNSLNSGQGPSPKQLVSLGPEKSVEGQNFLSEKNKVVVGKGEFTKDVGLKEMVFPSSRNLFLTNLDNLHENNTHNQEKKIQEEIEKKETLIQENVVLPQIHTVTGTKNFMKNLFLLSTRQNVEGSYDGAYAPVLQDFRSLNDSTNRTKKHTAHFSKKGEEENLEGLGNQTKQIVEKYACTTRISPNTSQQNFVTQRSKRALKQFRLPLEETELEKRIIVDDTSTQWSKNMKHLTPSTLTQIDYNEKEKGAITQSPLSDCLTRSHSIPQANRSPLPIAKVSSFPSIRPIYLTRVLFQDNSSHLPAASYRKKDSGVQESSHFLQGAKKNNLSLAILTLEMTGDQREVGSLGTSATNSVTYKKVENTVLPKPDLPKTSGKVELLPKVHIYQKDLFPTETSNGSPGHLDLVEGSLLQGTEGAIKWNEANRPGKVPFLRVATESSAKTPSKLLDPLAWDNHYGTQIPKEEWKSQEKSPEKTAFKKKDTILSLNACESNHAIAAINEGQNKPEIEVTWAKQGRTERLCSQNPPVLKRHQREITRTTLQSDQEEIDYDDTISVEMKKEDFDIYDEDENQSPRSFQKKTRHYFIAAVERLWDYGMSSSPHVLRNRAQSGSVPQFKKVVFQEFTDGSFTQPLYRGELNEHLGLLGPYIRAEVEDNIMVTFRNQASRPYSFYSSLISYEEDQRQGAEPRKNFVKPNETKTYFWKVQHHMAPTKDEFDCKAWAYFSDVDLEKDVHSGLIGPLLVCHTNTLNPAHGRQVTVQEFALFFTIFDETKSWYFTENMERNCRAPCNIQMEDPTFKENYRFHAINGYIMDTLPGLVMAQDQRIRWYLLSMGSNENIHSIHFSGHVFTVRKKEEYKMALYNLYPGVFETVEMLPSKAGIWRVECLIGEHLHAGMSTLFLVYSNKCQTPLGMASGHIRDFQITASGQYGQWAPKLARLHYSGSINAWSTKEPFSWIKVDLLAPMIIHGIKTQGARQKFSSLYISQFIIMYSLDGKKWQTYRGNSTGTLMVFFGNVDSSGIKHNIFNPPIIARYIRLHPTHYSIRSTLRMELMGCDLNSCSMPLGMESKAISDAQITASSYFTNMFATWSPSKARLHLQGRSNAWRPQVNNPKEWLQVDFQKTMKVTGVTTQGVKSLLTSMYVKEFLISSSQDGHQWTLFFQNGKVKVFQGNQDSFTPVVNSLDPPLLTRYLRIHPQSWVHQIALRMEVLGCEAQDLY

B1: FVIII aptamer (full-length clone, 77 nt) (ssDNA)
DNA: GGTGTTACTCTTCATGTGGATCCGTACGTCCTGGGCTTCTTGATCGTCAGCCGAAGAATTCAGCACCCTAGCCTCGT
As usually defined, the Kd is the equilibrium constant for the complex coming apart. Regarding B1, the Kd was 925 ± 11.6 nM.
